Measurements from US8106168B2, “Metalloproteinase binding proteins” (Dyax Corp., priority 2005, dated 2012).

Target: MMP-14 (Homo sapiens, UniProt P50281)
Experiment: Selection and phage ELISA screening of anti-MMP-14 Fabs
Format: binding
Conditions: Fab from FAB310 phage display library
Procedure: Strategy I: A 100-fold excess of the FAB310 library (e.g., an amount of the library that should contain 100 copies of each library member) was depleted of streptavidin-binding antibodies by incubating the library with 200 μL of streptavidin beads for 1 hour at room temperature (RT) with rotation. 500 nM of biotinylated MMP-14 was coupled to streptavidin beads by incubation with 100 μL of streptavidin beads. The MMP-14 beads were then incubated with the streptavidin-depleted library for 1 hour at RT with rotation. The beads were then rinsed three times with 2% MTRIS/0.1% Tween, transferred to a fresh tube and washed an additional three times with 2% MTRIS/0.1% Tween, and transferred to a fresh tube and washed a final time with Round 1 TRIS buffer (50 mM TRIS; 50 mM CaCl2; 150 mM NaCl, pH 7.5).
MMP-14 binding antibodies were eluted from the beads by re-suspension in 1 mL 2% MTRIS containing 2.5 μM TIMP-2 and incubation for 1 hour at RT with rotation. The beads were then washed three times with 2% MTRIS/0.1% Tween, transferred to a fresh tube and washed three times with TRIS/0.1% Tween, and transferred to a fresh tube and washed a final time with TRIS. 1 mL output was used for infection of 9 mL TG1 bacteria (grown to OD600=0.5). The beads were further eluted by suspension in 1 mL 100 mM TEA for 10 minutes. The supernatant was neutralized with 500 μl TRIS/HCl pH 7.5. 1 mL of the second elution was used for infection of 9 mL TG1 bacteria (grown to OD600=0.5).
Two additional rounds of selection were carried out under the same conditions as the first round, except that the streptavidin beads were loaded with 100 nM biotinylated MMP-14 and the number of washes were doubled (6 times with 2% MTRIS/0.1% Tween, 6 times with TRIS/0.1% Tween and 2 times with TRIS), and Round 2/3 Tris buffer (50 mM TRIS; 5 mM CaCl2; 150 mM NaCl pH=7.5) was used for incubation and wash.
TIMP-2 was coupled to carboxylic beads, then complexed with a combination of biotinylated MMP-14 (500 nM each). The complexed beads were incubated with a 100 fold excess of FAB310 library that had been previously depleted by incubation with streptavidin beads and carboxylic beads. Elution/washing was carried out as for Strategy I.
Two additional rounds of selection were carried out, essentially as described for Strategy I, except that only 100 nM of each of MMP-14 were used in the bead complexes.
384-well plates were coated with biotinylated BSA (2 μg/ml in 50 mM TRIS; 5 mM CaCl2; 150 mM NaCl, pH 7.5), then washed 3 times with 50 mM TRIS; 5 mM CaCl2; 150 mM NaCl, pH 7.5; 0.1% Tween. Streptavidin was captured on the coated plates by incubation with 10 μg/mL streptavidin in 50 mM TRIS; 5 mM CaCl2; 150 mM NaCl pH 7.5; 0.5% Gelatin, followed by a wash with 50 mM TRIS; 5 mM CaCl2; 150 mM NaCl pH=7.5; 0.1% Tween. On the day the assay was to be performed, biotinylated MMP-14 (1 μg/ml) was captured in 50 mM TRIS; 5 mM CaCl2; 150 mM NaCl, pH 7.5.
95 clones were picked from each of Round 2 and Round 3 of each selection strategy, producing 12 masterplates. ELISA was run on the MiniTrak-5 deck according to SOP.

Molecule	bind to human MMP-14
M0038-E05: Fab that binds human MMP-14; DNA LV SEQ ID NO: 56, HV SEQ ID NO: 57 (antibody, V domains shown, Synthetically generated oligonucleotide) VL: QDIQMTQSPSSVSASVGDRVTITCRASQHISNWLAWYQQKPGEAPKLLISAASSLQSGVPSRFSGSGSGTDFTLTISSLQPEDFATYYCQQSYSTPLTFGGGTKVEIK VH: EVQLLESGGGLVQPGGSLRLSCAASGFTFSPYHMTWVRQAPGKGLEWVSSISSSGGHTEYADSVKGRFTISRDNSKNTLYLQMNSLRAEDTAVYYCATAWAGFTFNVWGQGTMVTVSS	bind to human MMP-14
M0037-B10: Fab that binds human MMP-14; DNA LV SEQ ID NO: 38, HV SEQ ID NO: 39 (antibody, V domains shown) VH: EVQLLESGGGLVQPGGSLRLSCAASGFTFSVYYMGWVRQAPGKGLEWVSYIGSSGGWTEYADSVKGRFTISRDNSKNTLYLQMNSLRAEDTAVYYCARDLSAVAGLGGAFDIWGQGTMVTVSS VL: QDIQMTQSPSSLSASVGDRVAITCRASQSIDTYLNWYQQKPGKAPKLLIYAASKLEDGVPSRFSGSGTGTDFTLTIRSLQPEDFASYFCQQSYSSPGITFGPGTKVEIK	bind to human MMP-14
M0038-C05: Fab that binds human MMP-14; DNA LV SEQ ID NO: 50, HV SEQ ID NO: 51 (antibody, V domains shown, Synthetically generated oligonucleotide) VL: QDIQMTQSPSSLSASVGDRVTITCRASQSISSYLNWYQQKPGKAPKLLIYAASSLQSGVPSRFSGSGSGTDFTLTISRLEPEDFAVYYCQQYGSSPTFGQGTKVEIK VH: EVQLLESGGGLVQPGGSLRLSCAASGFTFSSYIMVWVRQAPGKGLEWVSVIYPSGGPTYYADSVKGRFTISRDNSKNTLYLQMNSLRAEDTAVYYCARDPRLERFYFDYWGQGTLVTVSS	bind to human MMP-14
M0030-A04: Fab that binds human MMP-14; DNA LV SEQ ID NO: 6, HV SEQ ID NO: 7 (antibody, V domains shown, Synthetically generated oligonucleotide) VH: EVQLLESGGGLVQPGGSLRLSCAASGFTFSVYEMNWVRQAPGKGLEWVSSIYSSGGRTDYADSVKGRFTISRDNSKNTLYLQMNSLRAEDTAVYYCAREAHYYDSSGPPDYWGQGTLVTVSS VL: QSELTQPPSASGTPGQRVTISCSGSSSNIGINFVTWYQQLPGTAPKLLIYTNNQRPSGVPDRFSSSKSGASASLAISGLQSEDEAAYYCAAWDDNLNGPVFGGGTKLTVL	bind to human MMP-14
M0037-C03: Fab that binds human MMP-14; DNA LV SEQ ID NO: 40, HV SEQ ID NO: 41 (antibody, V domains shown, Synthetically generated oligonucleotide) VL: QDIQMTQSPSSVSASVGDRVTITCRASQGISSWLAWYQQKPGKAPKLLIYAASSLQSGVPSRFSGSGSGTDFTLTISSLQPEDFATYYCQQANSFPFVTFGQGTKLEIK VH: EVQLLESGGGLVQPGGSLRLSCAASGFTFSMYLMIWVRQAPGKGLEWVSVISSSGGQTKYADSVKGRFTISRDNSKNTLYLQMNSLRAEDTAVYYCARTDLTGYSAGAFDIWGQGTMVTVSS	bind to human MMP-14
M0035-F02: Fab that binds human MMP-14; DNA LV SEQ ID NO: 28, HV SEQ ID NO: 29 (antibody, V domains shown, Synthetically generated oligonucleotide) VH: EVQLLESGGGLVQPGGSLRLSCAASGFTFSFYRMEWVRQAPGKGLEWVSSIVPSGGFTRYADSVKGRFTISRDNSKNTLYLQMNSLRAEDTAVYYCARFHVLRYFDWFGNTQDTDAFDIWGQGTLVTVSS VL: QDIQMTQSPATLSLSPGERATLSCRASQSVSNYLAWYQQKPGQAPRLLIYDASNRATGIPARFSGSGSGTDFTLTISSLEPEDFAVYYCQQRSNWPLTFGGGTKVEIK	bind to human MMP-14
M0038-D06: Fab that binds human MMP-14; DNA LV SEQ ID NO: 54, HV SEQ ID NO: 55 (antibody, V domains shown, Synthetically generated oligonucleotide) VL: QDIQMTQSPATLSLSPGERATLSCRASQSVSSYLAWYQQKPGQAPRLLIYDASNRATGIPARFSGSGSGTDFTLTISSLEPEDFAVYYCQQRSNWPLTFGQGTRLEIK VH: EVQLLESGGGLVQPGGSLRLSCAASGFTFSWYYMGWVRQAPGKGLEWVSYIGSSGGMTGYADSVKGRFTISRDNSKNTLYLQMNSLRAEDTATYYCAMVGFLPTVDYWGQGTLVTVSS	bind to human MMP-14
M0036-D02: Fab that binds human MMP-14; DNA LV SEQ ID NO: 30, HV SEQ ID NO: 31 (antibody, V domains shown, Synthetically generated oligonucleotide) VL: QDIQMTQSPATLSLSPGEKATLSCRASQTVYNYLAWYQQKPGQAPRLLIYDAFNRATGIPARFSGSGSGTDFTLTISSLEPEDFAVYYCQQRGNWPRTFGQGTKVEIK VH: EVQLLESGGGLVQPGGSLRLSCAASGFTFSFYKMTWVRQAPGKGLEWVSGIYPSGGRTVYADSVKGRFTISRDNSKNTLYLQMNSLRAEDTAMYYCARGPHYYDSPGAFDIWGQGTMVTVSS	bind to human MMP-14
M0036-F02: Fab that binds human MMP-14; DNA LV SEQ ID NO: 32, HV SEQ ID NO: 33 (antibody, V domains shown, Synthetically generated oligonucleotide) VL: QYELTQPPSLSVSPGQTASITCSGEKLGEKFASWYQRRPGQSPLLIIYQDNKRPSGIPERFSGSNSGNTAALTITGTQAMDDADYYCQAWESTTAVFGGGTKLTVL VH: EVQLLESGGGLVQPGGSLRLSCAASGFTFSRYTMGWVRQAPGKGLEWVSRIYSSGGNTVYADSVKGRFTISRDNSKNTLYLQMNSLRAEDTATYYCARTRRDGYNPFDYWGQGTLVTVSS	bind to human MMP-14
M0038-B06: Fab that binds human MMP-14; DNA LV SEQ ID NO: 48, HV SEQ ID NO: 49 (antibody, V domains shown, Synthetically generated oligonucleotide) VL: QDIQMTQSPSSLSASVGDRVTITCRASQSISSYLNWYQQKPGKAPKLLIYAASSLQSGVPSRFRGSGSGTDFSLTISSLQPEDFATYYCQQTYSGLPTFGGGTVVEIK VH: EVQLLESGGGLVQPGGSLRLSCAASGFTFSSYVMGWVRQAPGKGLEWVSVISPSGGWTTYADSVKGRFTISRDNSKNTLYLQMNSLRAEDTATYYCASRGVVTNLDYWGQGTLVTVSS	bind to human MMP-14
M0037-A08: Fab that binds human MMP-14; DNA LV SEQ ID NO: 36, HV SEQ ID NO: 37 (antibody, V domains shown, Synthetically generated oligonucleotide) VL: QDIQMTQSPSSVSASVGDRVTITCRASQGVSSYLAWYQQKPGKAPKLLIYGASTLQNGVPSRFSGSGSGTDFTLTISSLQPEDFATYHCQQVHSFPPTFGQGTKVEIK VH: EVQLLESGGGLVQPGGSLRLSCAASGFTFSHYMMMWVRQAPGKGLEWVSGISSSGGRTGYADSVKGRFTISRDNSKNTLYLQMNSLRAEDTAVYYCASFGNSGSYSWRAFDIWGQGTTVTVSS	bind to human MMP-14
M0037-H09: Fab that binds human MMP-14; DNA LV SEQ ID NO: 46, HV SEQ ID NO: 47 (antibody, V domains shown, Synthetically generated oligonucleotide) VL: QDIQMTQSPLSLPVTPGEPASISCRSSQSLLHGNGNNYLDWYLQKPGQSPQLLIYLGSNRASGVPDRFSGSGSGTDFTLKISSVEAEDVGVYYCMQGLQTPHTFGQGTQLEIK VH: EVQLLESGGGLVQPGGSLRLSCAASGFTFSRYWMDWVRQAPGKGLEWVSSIRSSGGMTGYADSVKGRFTISRDNSKNTLYLQMNSLRAEDTAVYYCARHRTGRGAFDIWGQGTTVTVSS	bind to human MMP-14
